Test system: 12% skim milk
Assay: Milk clotting activity (MCA) assay, curd formation time
Format: biochemical
Conditions: 12% skim milk in 10 mM CaCl2, pH 6.5, 37° C.; FIG. 5
Protocol: The MCA of the C. otophyllum proteases was determined using a modified method of He et al. (2011). One milliliter of substrate (12% skim milk in 10 mM CaCl2, pH 6.5) was incubated under 37° C. for 5 min, then 0.1 mL of the protease extracted solution was added. The time needed for curd formation was recorded and the MCA was expressed in Soxhlet units (SU). One SU of MCA was defined as the amount of the protease extracted solution required to clot 1 mL of substrate within 40 min at 37° C.
where V stands for the volume of the substrate (mL); v stands for the volume of the protease extract; and t stands for the milk-clotting time (s).
The C. otophyllum proteases were extracted as described by Huang et al. (2011) with some modifications. The C. otophyllum leaves were cut into pieces, mixed with a buffer at different solid-liquid ratios (i.e. ratio of mass to volume) for extraction, and then left for 2 h under 4° C., thus obtaining an extracted solution. After successive filtration through 4 layers of cheesecloth and a 0.22-μm membrane, the filtrate was concentrated by ultrafiltration with a 10-kDa molecular weight cut-off membrane at 8000 × g for 40 minutes at 4° C., with the retentate obtained as the concentrated solution of C. otophyllum proteases, which was assayed for protein concentration following the method of Bradford (1976) and curd formation time for 12% (w/v) skim milk.

B1: papain (protein, UniProt P00784 134-345, looked up)
Papain: IPEYVDWRQKGAVTPVKNQGSCGSCWAFSAVVTIEGIIKIRTGNLNEYSEQELLDCDRRSYGCNGGYPWSALQLVAQYGIHYRNTYPYEGVQRYCRSREKGPYAAKTDGVRQVQPYNEGALLYSIANQPVSVVLEAAGKDFQLYRGGIFVGPCGNKVDHAVAAVGYGPNYILIKNSWGTGWGENGYIRIKRGTGNSYGVCGLYTSSFYPVKN
notes: cysteine protease from Sigma-Aldrich used as comparison
- MCA (milk-clotting activity): 100.2 SU/mg
